Laboratory results published in publication PMC12531337.

Biological target: T1, ZEB2 ZnF8 peptide (UniProt O60315 1055-1076)
T1 chain: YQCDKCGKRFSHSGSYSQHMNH
Test: NMR

B1: ZnF-binding DNA (E2 box) (dsDNA)
DNA 1: GTAATCTGGGCCACCTGCCTGGGAGGA
DNA 2: TCCTCCCAGGCAGGTGGCCCAGATTAC
Question: Does B1 bind?
Answer: binds
